Source: patent US8440629B2, “Cyclic receptor-associated protein (RAP) peptides” (Raptor Pharmaceuticals Inc., priority 2007, dated 2013)
Residue numbers refer to the chain shown, from its start. Names may count otherwise.

B1: RAP d3: third domain of human RAP, amino acids 201-319 of mature RAP, bacterially expressed with hexahistidine and S-peptide tags (SEQ ID NO: 92) (protein, listed as Homo sapiens)
chain: LDRLRRVSHQGYSTEAEFEEPRVIDLWDLEQSANLTDKELEAFREELKHFEAKIEKHNHYQKQLEIAHEKLRHAESVGDGERVSRSREKHALLEGRTKELGYTVKKHLQDLSGRISRAR
modifications: hexahistidine and S-peptide tags
B2: MegaRAP1 d3: d3 of RAP variant selected on LRP2 CR89: S213T, E217K, H249Y, E251K, K256A, K270E (SEQ ID NO: 93) (protein, listed as Homo sapiens)
chain: B1 chain with E51K, K56A, K70D

Experiments:
[1] = target: T1, LRP2 CR89 (Homo sapiens, UniProt P98164); experiment: Solid phase binding assay
T1 construct: two CR pairs from LRP2 (CR89, CR3435); made in house; host or cells: E. coli BL21(DE3) CodonPlus-RIPL, pET30(+)a
T1 sequence (P98164 1022-1105 limits assumed): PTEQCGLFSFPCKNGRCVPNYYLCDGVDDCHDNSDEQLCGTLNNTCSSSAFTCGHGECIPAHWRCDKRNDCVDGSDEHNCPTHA
Method: All expression constructs were sequenced to verify insert sequences and the junctions with the expression vector. Each plasmid was then used to transform BL21(DE3) CodonPlus-RIPL™ cells (Stratagene). Expression of the CR proteins was induced in logarithmic growth-phase cells grown in LB supplemented with 34 μg/mL chloramphenicol, 12.5 μg/mL tetracycline and 15 μg/mL kanamycin by addition of 2 mM IPTG, followed by reduction in incubator temperature to 32° C. and incubation for 4 hours with agitation at […]. Cells were pelleted and resuspended, at 3.5% of the initial culture volume in 10 mM Tris-HCl pH 8, 100 mM NaH2PO4, 8M Urea. Resuspended cells were then frozen in liquid nitrogen, rapidly thawed to 37° C. and sonicated for 10 seconds at an amplitude setting of 60 using a Cole-Parmer CP-130 ultrasonic processor connected to a 3 mm probe. This procedure was repeated three times to effect complete lysis of the cells. Lysates were clarified by spinning twice at 10,000×g in a Sorvall RC-5 centrifuge for 20 minutes at 15° C. Ni-NTA columns (Qiagen Superflow™, 1.5 mL packed bed) were used to purify the CR proteins. Briefly, the resin was equilibrated with two column volumes of lysis buffer. The clarified lysate was then supplemented to 20 mM with imidazole and incubated with the equilibrated Ni-NTA resin overnight at 4° C. The flow-through was discarded. Columns were washed once with one column volume of lysis buffer and then three times with one column volume of TBS pH 8 supplemented with 20 mM imidazole. CR-loaded beads were then removed from the column and CR proteins eluted by incubating at room temperature for 30 minutes with one column volume of the same buffer containing 200 mM imidazole. This step was repeated once and the eluates pooled. Eluted CR protein solutions were then supplemented to 2 M urea, 10 mM CaCl2 and 5 mM DTT. Purified, denatured CR protein solutions were transferred to 3,500 MWCO Slide-A-Lyzer™ (Pierce) cassettes and sequentially dialyzed against a 200-fold excess of 50 mM Tris-HCl pH 8.5, 10 mM CaCl2, 1 mM reduced glutathione, 0.5 mM oxidized glutathione at room temperature overnight and then against TBS supplemented with 5 mM CaCl2 at 4° C. overnight. Protein concentrations were determined by Bradford assay and purity confirmed by SDS-PAGE with Coomassie Brilliant Blue staining.
(§1) Purified, refolded CR protein (1 μg) was bound to Nunc Maxisorp™ 96-well plates in TBS pH 8 supplemented with 5 mM CaCl2 (TBSC) overnight at 4° C. Wells were washed with TBSC and then blocked with TBSC containing 2% bovine serum albumin (BSA). RAP ligands were then incubated with the immobilized receptor at a range of concentrations for 2 hours in the above blocking buffer supplemented with 0.05% Tween-20 at room temperature. Control wells contained no added ligand. As an additional control, to determine whether the absence of calcium affected binding, 10 mM EGTA was included in the incubation medium for some samples. Wells were washed with TBSTC and bound ligands detected with polyclonal anti-RAP (BP41/42, 1:1,000, BioMarin). Excess primary antibody was removed and wells washed before incubation with the secondary antibody, HRP-conjugated goat anti rabbit IgG (Bio-Rad). After washing, TMB substrate solutions (Bio-Rad) were added to detect HRP. Color development was stopped with 1N HCl. Absorption at 450 nm was measured with a microplate spectrophotometer (Molecular Devices). Data were plotted and Kd values derived by non-linear regression with the assumption of single-site binding (GraphPad Prism).

[2] = target: T2, LRP2 CR89 Y1042W R1088D (WVWD) (Homo sapiens, UniProt P98164, R1089D/Y1043W); experiment: Solid phase binding assay, LRP2 CR89 mutant
T2 construct: two CR pairs from LRP2 (CR89, CR3435); made in house; host or cells: E. coli BL21(DE3) CodonPlus-RIPL, pET30(+)a
T2 sequence (P98164 1025-1102 Y1043W/R1089D): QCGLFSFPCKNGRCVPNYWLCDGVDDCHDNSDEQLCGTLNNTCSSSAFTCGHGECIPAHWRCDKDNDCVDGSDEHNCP
Excerpt: Each amplified fragment was sequentially digested with BamHI and HindIII and then ligated into similarly digested pET30(+)a. The resulting plasmids encode proteins consisting of N-terminal hexahistidine and S-peptides fused to the CR fragment. Ligation reactions were transformed into XL-Blue MRF′ (Stratagene) by electroporation and plasmids isolated from single colonies. Three mutations, […], V1047D and R1088D, were introduced into the LRP2 CR89 expression plasmid both singly and in combination using Stratagene QuikChange II XL reagents and the primers: […]
as §1
One premise of this work was that amino acids at A, C, A′ and C′ within the calcium-binding loops of a CR pair were key determinants of binding affinity for RAP and would be similarly important for binding of RAP variants. To test this idea, mutant LRP2 CR89 were prepared in which the native, non-canonical residues at these positions were sequentially substituted with the non-native, canonical residues. As defined above, the A, C, A′, C′ string for LRP2 CR89 is YVWR. Mutants included LRP2 CR89 Y1042W (WVWR), LRP2 CR89 V1047D (YDWR), LRP2 CR89 R1088D (YVWD), LRP2 CR89 V1047D R1088D (YDWD), LRP2 CR89 Y1042W V1047D R1088D (WDWD), LRP2 CR89 Y1042W V1047D (WDWR), LRP2 CR89 Y1042W R1088D (WVWD). Binding to both RAP d3 and MegaRAP1 d3 were measured for each LRP2 CR89 mutant by solid-phase assay. Only the YVWD mutant retained significant binding to MegaRAP1 d3, with an approximate 2-fold loss of affinity relative to LRP2 CR89 (FIG. 6 and Table 3). […] The A′ position in LRP2 CR89 is a tryptophan, the canonical residue for wild-type RAP d3 binding, and was not mutated in our studies.

[3] = system: CR proteins; experiment: Solid phase binding assay in presence of 10 mM EGTA; design: species or system human
Method: as §1
Next, the binding of RAP d3 and MegaRAP1 d3 proteins to LRP1 CR3-5 and LRP2 CR89 was assessed. […]

Molecule	binding to LRP2 CR89 (in words) ([1]; solid-phase assay)	binding (in words) [2]	effect of 10 mM EGTA on binding to CR proteins [3]	binding at 80 nM (in words) ([1]; 80 nM ligand, FIG. 7)	Kd ([1]; solid-phase assay, LRP2 CR89, read-out: apparent dissociation constant (Kd))
B1	no significant affinity	small increase in binding	prevented binding	–	–
B2	–	failed to bind measurably	prevented binding	bound only to LRP2 CR89	38 nM
